Test results from US20100280227A1 (Genentech, published 2010).
Several values for one entry are separate records, joined by “and”; a condition that tells them apart may be missing. Equal entries are not always repeated. Where two headings read alike, the source gives them in different places.

B1: V3-1m (antibody, mouse IgG2a, V domains shown)
VH: EVQLVESGGGLVQPGGSLRLSCAASGFTISSNSIHWVRQAPGKGLEWVAWITPSDGNTDYADSVKGRFTISADTSKNTAYLQMNSLRAEDTAVYYCARRVCYNRLGVCAGGMDYWGQGTLVTVSS
VL: DIQMTQSPSSLSASVGDRVTITCRASQDVSTAVAWYQQKPGKAPKLLIYSASFLYSGVPSRFSGSGSGTDFTLTISSLQPEDFATYYCQQSRITPPTFGQGTKVEIKR
notes: also called mV3-1; V3-1 (IgG)
B2: mBAFF-Flag protein (ligand, mouse, UniProt Q9WU72 127-309, looked up, not shown: small tags and cut ends)
chain: AFQGPEETEQDVDLSAPPAPCLPGCRHSQHDDNGMNLRNIIQDCLQLIADSDTPTIRKGTYTFVPWLLSFKRGNALEEKENKIVVRQTGYFFIYSQVLYTDPIFAMGHVIQRKKVHVFGDELSLVTLFRCIQNMPKTLPNNSCYSAGIARLEEGDEIQLAIPRENAQISRNGDDTFFGALKLL
B3: murine monoclonal antibody 2.1 (antibody, V domains shown)
VH: EVQLQESGPSLVKPSQTLSLTCSVTGDSITRGYWNWIRKFPGNKLEFMGYINYSGTTYYNPSLKSRISITRDTSKNQYYLQLNSVTTEDTATYYCATPHTYGAMDYWGQGTTLTVSA
VL: DIVLTQSPVSLAVSLGQRATISCRASESVDDYGISFMHWYQQKPGQPPKLLIYRASDLESGIPARFSGSGSGTDFTLTINPVETDDVAIYYCQQTSKDPWTFGGGT
notes: mouse hybridoma IgG; also called 2.1 IgG; mu2.1

How the values were obtained:
[1] = target: T1, human BR3 expressed on cells (human, UniProt Q96RJ3 1-184); test: BJAB cells, competition with biotin-BAFF
T1 construct: whole, on cells; also called BR3 on BJAB cells; cell surface BR3

[2] = target: T2, mouse BR3 (form in the mapping assay not stated) (mouse, UniProt Q9D8D0 1-71, limits assumed); test: competition ELISA on murine BR3 against biotinylated B9C11
T2 construct: May be the same as m2, m6 or m10
T2 sequence (looked up): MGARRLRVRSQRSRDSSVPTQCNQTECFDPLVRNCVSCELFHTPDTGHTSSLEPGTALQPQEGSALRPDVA

[3] = target: T3, murine BR3 expressed on cells (mouse, UniProt Q9D8D0 1-175); test: BHK cells expressing murine BR3, competitive binding assay against BAFF
T3 construct: whole, on cells; also called murine BR3 on BHK cells; mouse BR3
T3 sequence (looked up): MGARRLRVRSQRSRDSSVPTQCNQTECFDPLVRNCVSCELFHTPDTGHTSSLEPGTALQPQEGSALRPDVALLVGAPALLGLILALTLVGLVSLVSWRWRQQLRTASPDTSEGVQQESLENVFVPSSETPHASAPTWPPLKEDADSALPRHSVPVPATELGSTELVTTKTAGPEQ

[4] = target: T1, human BR3 expressed on cells; test: BJAB cells, direct binding
[5] = target: T4, mouse BR3 extracellular domain (mouse, UniProt Q9D8D0 1-64); test: SPR, IgG on chip, BR3 ECD in solution
T4 construct: also called mBR3-ECD; mBR-ECD
T4 sequence: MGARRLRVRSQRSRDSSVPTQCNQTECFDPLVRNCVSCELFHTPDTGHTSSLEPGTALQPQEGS

[6] = target: T5, human BR3 extracellular domain (human, UniProt Q96RJ3 1-61); test: SPR, IgG on chip, BR3 ECD in solution
T5 construct: biotinylated where used as tracer; also called hBR3-ECD; BR3-ECD

[7] = target: T1, human BR3 expressed on cells; test: BJAB cells, direct binding; remark: listed apart in the source
[8] = target: T1, human BR3 expressed on cells; test: BJAB cells, competition with biotin-BAFF; remark: listed apart in the source
[9] = target: T6, human BR3 displayed on phage, R39 alanine-scan mutant (human, UniProt Q96RJ3 1-61, limits assumed); test: shotgun alanine scan of phage-displayed BR3; F against wild type;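 note: Phage-displayed BR3 shotgun alanine libraries, two selection rounds for anti-BR3 antibody binding, normalized to a display selection, F above 1 marks a harmful substitution, below 1 a beneficial one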
T6 construct: One position of the shotgun alanine scan of BR3 on phage

[10] = target: human BR3 displayed on phage, mutated at A22 in the alanine scan (human, UniProt Q96RJ3 1-61, limits assumed); test: as above
[11] = target: T7, human BR3 displayed on phage, R42 alanine-scan mutant (human, UniProt Q96RJ3 1-61, limits assumed); test: as above
T7 construct: One position of the shotgun alanine scan of BR3 on phage

[12] = target: T8, human BR3 displayed on phage, G36 alanine-scan mutant (human, UniProt Q96RJ3 1-61, limits assumed); test: as above
T8 construct: One position of the shotgun alanine scan of BR3 on phage

[13] = target: T9, human BR3 displayed on phage, V33 alanine-scan mutant (human, UniProt Q96RJ3 1-61, limits assumed); test: as above
T9 construct: One position of the shotgun alanine scan of BR3 on phage

[14] = target: T10, human BR3 displayed on phage, L38 alanine-scan mutant (human, UniProt Q96RJ3 1-61, limits assumed); test: as above
T10 construct: One position of the shotgun alanine scan of BR3 on phage

[15] = target: human BR3 displayed on phage, mutated at A34 in the alanine scan (human, UniProt Q96RJ3 1-61, limits assumed); test: as above
[16] = target: T11, human BR3 displayed on phage, H31 alanine-scan mutant (human, UniProt Q96RJ3 1-61, limits assumed); test: as above
T11 construct: One position of the shotgun alanine scan of BR3 on phage

[17] = target: T12, human BR3 displayed on phage, E23 alanine-scan mutant (human, UniProt Q96RJ3 1-61, limits assumed); test: as above
T12 construct: One position of the shotgun alanine scan of BR3 on phage

[18] = target: T13, human BR3 displayed on phage, V29 alanine-scan mutant (human, UniProt Q96RJ3 1-61, limits assumed); test: as above
T13 construct: One position of the shotgun alanine scan of BR3 on phage

[19] = target: T14, human BR3 displayed on phage, D26 alanine-scan mutant (human, UniProt Q96RJ3 1-61, limits assumed); test: as above
T14 construct: One position of the shotgun alanine scan of BR3 on phage

[20] = target: T15, human BR3 displayed on phage, L37 alanine-scan mutant (human, UniProt Q96RJ3 1-61, limits assumed); test: as above
T15 construct: One position of the shotgun alanine scan of BR3 on phage

[21] = target: T16, human BR3 displayed on phage, L27 alanine-scan mutant (human, UniProt Q96RJ3 1-61, limits assumed); test: as above
T16 construct: One position of the shotgun alanine scan of BR3 on phage

[22] = target: T17, human BR3 displayed on phage, P21 alanine-scan mutant (human, UniProt Q96RJ3 1-61, limits assumed); test: as above
T17 construct: One position of the shotgun alanine scan of BR3 on phage

[23] = target: T18, human BR3 displayed on phage, P18 alanine-scan mutant (human, UniProt Q96RJ3 1-61, limits assumed); test: as above
T18 construct: One position of the shotgun alanine scan of BR3 on phage

[24] = target: T19, human BR3 displayed on phage, T17 alanine-scan mutant (human, UniProt Q96RJ3 1-61, limits assumed); test: as above
T19 construct: One position of the shotgun alanine scan of BR3 on phage; the F value gives the effect of this change against wild type; See m1 for the parent

[25] = target: T20, human BR3 displayed on phage, L28 alanine-scan mutant (human, UniProt Q96RJ3 1-61, limits assumed); test: as above
T20 construct: One position of the shotgun alanine scan of BR3 on phage

[26] = target: T21, human BR3 displayed on phage, P41 alanine-scan mutant (human, UniProt Q96RJ3 1-61, limits assumed); test: as above
T21 construct: One position of the shotgun alanine scan of BR3 on phage

[27] = target: T22, human BR3 displayed on phage, T40 alanine-scan mutant (human, UniProt Q96RJ3 1-61, limits assumed); test: as above
T22 construct: One position of the shotgun alanine scan of BR3 on phage

[28] = target: T23, human BR3 displayed on phage, V20 alanine-scan mutant (human, UniProt Q96RJ3 1-61, limits assumed); test: as above
T23 construct: One position of the shotgun alanine scan of BR3 on phage

[29] = target: T24, human BR3 displayed on phage, F25 alanine-scan mutant (human, UniProt Q96RJ3 1-61, limits assumed); test: as above
T24 construct: One position of the shotgun alanine scan of BR3 on phage

[30] = target: T2, mouse BR3 (form in the mapping assay …); test: competition ELISA on murine BR3 against biotinylated V3-1m
mouse BR3-Fc = target: T25, mouse BR3-Fc (mouse); test: ELISA: mBAFF-Flag titrated on coated mBR3-Fc, then F(ab)'2 phage #3 (V3) added and detected
T25 construct: (BR3 ECD fused to a murine Fc); also called mBR3-Fc; murine BR3-Fc
T25 chain: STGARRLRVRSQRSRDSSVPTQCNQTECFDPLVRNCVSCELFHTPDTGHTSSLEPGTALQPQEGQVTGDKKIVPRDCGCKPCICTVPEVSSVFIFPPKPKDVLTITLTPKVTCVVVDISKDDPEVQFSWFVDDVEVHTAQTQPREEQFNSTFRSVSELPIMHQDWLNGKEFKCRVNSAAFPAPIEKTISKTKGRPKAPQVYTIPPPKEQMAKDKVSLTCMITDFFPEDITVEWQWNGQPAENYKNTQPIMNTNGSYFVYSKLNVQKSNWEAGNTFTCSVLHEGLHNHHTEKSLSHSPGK

[31] = target: T26, variant human BR3-Fc fusion; test: competition ELISA on vhBR3-Fc against biotinylated 2.1
T26 construct: produced in CHO cells; also called vBR3-Fc; vhBR3-Fc

[32] = target: T5, human BR3 extracellular domain; test: SPR, BR3 ECD on chip;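 note: Anti-BR3 antibodies passed over the chip at high flow in PBS with 0.05% polysorbate 20, on and off rates fitted together globally to a 1:1 binding model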
[33] = target: T26, variant human BR3-Fc fusion; test: SPR, vBR3-Fc on chip;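 note: Anti-BR3 antibodies passed over chip-bound BR3-Fc in PBS with 0.05% polysorbate 20, on and off rates fitted together globally to a 1:1 binding model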
[34] = target: T26, variant human BR3-Fc fusion; test: competition ELISA on vhBR3-Fc against biotinylated 11G9
[35] = target: T27, human BR3 displayed on phage, R30 alanine-scan mutant (human, UniProt Q96RJ3 1-61, limits assumed); test: shotgun alanine scan of phage-displayed BR3; F against wild type;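 note: Phage-displayed BR3 shotgun alanine libraries, two selection rounds for anti-BR3 antibody binding, normalized to a display selection, F above 1 marks a harmful substitution, below 1 a beneficial one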
T27 construct: One position of the shotgun alanine scan of BR3 on phage

| Binder | IC50 [1] [nM] | EC50 [4] [nM] | Kd [6] [nM] | koff [6] [s⁻¹] | kon [6] [M⁻¹ s⁻¹] | F value [9] | F value [10] | F value [11] | F value [14] | F value [15] | F value [16] | F value [17] | F value [18] | F value [19] | F value [20] | F value [21] | F value [22] | F value [23] | F value [24] | F value [25] | other results |
| --- | --- | --- | --- | --- | --- | --- | --- | --- | --- | --- | --- | --- | --- | --- | --- | --- | --- | --- | --- | --- | --- |
| B1 | 2.47 | 3.37 | 0.64 | 0.000171 | 267000 | 0.4 | 0.7 | 0.9 | 1.4 | 13 | 0.1 | 2.4 | 92 | 8.7 | 0.7 | 1.4 | 0.6 | 0.8 | 0.5 | 98 | IC50 (read off the curve) [2]: ~0.8 µg/mL; IC50 [3]: 36.2 nM; Kd [5]: 1.56 nM; koff [5]: 0.000131 s⁻¹; kon [5]: 84000 M⁻¹ s⁻¹; EC50 [7]: 4.3 nM; IC50 [8]: 8.9 nM; F value [12]: 0.7; F value [13]: 14; F value [26]: 1.6; F value [27]: 0.6; F value [28]: 0.9; F value [29]: 21; IC50 (read off the curve) [30]: ~0.6 µg/mL |
| B2 |  |  |  |  |  |  |  |  |  |  |  |  |  |  |  |  |  |  |  |  | IC50 (read off the curve) (mouse BR3-Fc): ~2 nM |
| B3 | 0.25 | 0.16 | 0.15 | 1.7e-05 | 110000 | 0.5 | 3.2 | 1.8 | 0.9 | 62 | 0.6 | 9.6 | 0.5 | 6.1 | 0.1 | 0.8 | 1.9 | 0.5 | 0.6 | 0.1 | IC50 (read off the curve) [31]: ~0.6 µg/mL; Kd [32]: 0.05 nM; koff [32]: 5.2e-05 s⁻¹; kon [32]: 960000 M⁻¹ s⁻¹; Kd [33]: 0.08 nM and 0.07 nM; koff [33]: 3.4e-05 s⁻¹ and 3.3e-05 s⁻¹; kon [33]: 440000 M⁻¹ s⁻¹ and 470000 M⁻¹ s⁻¹; IC50 (read off the curve) [34]: ~0.1 µg/mL; F value [35]: 10; F value [26]: 0.7; F value [27]: 0.2; F value [28]: 3; F value [29]: 49 |
